{
  "source": "the nanobody polyreactivity screen of Harvey et al. (2022)",
  "data": [
    {"experiment": "yeast display, Sf9 membrane polyspecificity reagent, FACS + sequencing; frameworks hold sequencing errors", "method_in_brief": "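A nanobody's polyreactivity label depends on the gate it was sorted from. Yeast display cells were stained with 10% biotinylated, detergent-solubilized Sf9 membrane reagent for 1 hour at 4 °C, enriched on streptavidin microbeads and sorted by FACS. The low and high (top ~1%) gates were set on anti-HA fluorescence for expression and streptavidin fluorescence for reagent binding.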", "values": [
      {"sequence": "QVQLVESGGGLVQAGGSLRLSCAASGSIFVDYAMGWYRQAPGKEMELVAAISSGGGSTYYADSVKGRFTISRDNAKNTVYLQMNSLKPEDTAVYYCAASVYGQHAGPGRWYTFYYWGQGTQVTVSS", "polyreactivity (PSR sort gate)": "low polyreactivity"},
      {"sequence": "QVQLVESGGGLVQAGGSLRLSCAASGSIFVENAMGWYRQAPGKERELVAAISSDASTNYADSVKGRFTISRDNAKNTVYLQMNSLKPEDTAVYSCAAGYNPHGQYDYWGQGTQVTVSS", "polyreactivity (PSR sort gate)": "low polyreactivity"},
      {"sequence": "QVQLVESGGGLVQAGGSLRLSCAASGSIFVEYAMGWYRQAPGKERELVSAIRWRGGSTNYADSVKGRFTISRDTAKNTVYLQMNSLNREDTAVYYCNARHPASGDLYRMDYWGQGTQVTVSS", "polyreactivity (PSR sort gate)": "low polyreactivity"},
      {"sequence": "QVQLVESGGGLVQAGGSLRLSCAASGSIFVGNAMGWYRQAPGKERELVAAINSGGSTNYADSVKGRFTISRDNAKNTVYLQMNSLKTEDTAVYYCAADDDYCRILQGDQSDDYWGQGTQVTVSS", "polyreactivity (PSR sort gate)": "low polyreactivity"},
      {"sequence": "QVQLVESGGGLVQAGGSLRLSCAASGSIFVGTAMGWYRQAPGKERELVADINSGGSTNYADSVKGRVTISRDNAKNTVYLQMNSLKPEDTAVSYCAKSAVSGTYDYWGQGTQVTVSS", "polyreactivity (PSR sort gate)": "low polyreactivity"},
      {"sequence": "QVQLVESGGGLVQAGGSLRLSCAASGSIFVGYAMGWYRLAPGKERELVASITNGDSTNYADSVKGRFTISRDNAKNTVYLQMNSLKPEDTAVYYCAADYYSFHPSGWYGYEYWGQGTQVTVSS", "polyreactivity (PSR sort gate)": "low polyreactivity"},
      {"sequence": "QVQLVESGGGLVQAGGSLRLSCAASGSIFVGYAMGWYRQAPGKERELVAAISKSGGSTYYADSVKGRFTISRDNAKNTDYLQMNSLKPEDTAVYYCATRTHRRGNYLSITHEYWGQGTQVTVSS", "polyreactivity (PSR sort gate)": "high polyreactivity"},
      {"sequence": "QVQLVESGGGLVQAGGSLRLSCAASGSIFVGYAMGWYRQAPGKEREWVAAIRSGGSTKYADSVKGRFTISRDNAKNTVYLQMNSLKPEDTAVYYCNVEVHPYYWVDNFQRFPVLHNYWGQGTQVTVSS", "polyreactivity (PSR sort gate)": "low polyreactivity"},
      {"sequence": "QVQLVESGGGLVQAGGSLRLSCAASGSIFVGYDMGWYRQAPGKERELVAAISWRGVGTYYADSVKGRCTISRDNAKNTVYLQMNSLKPEDTAVYYCAARWTVPRDSAPSKGYDYWGQGTQVTVSS", "polyreactivity (PSR sort gate)": "low polyreactivity"},
      {"sequence": "QVQLVESGGGLVQAGGSLRLSCAASGSIFVHNAMGWYRQAPGKERELVAAITWSGGSTYYADSVKGRFTISRDNAKNTVYLQMNSLKPEDTAVYYCNATYSVRYYLEFLNEPEMDYWGQGTQVTVSS", "polyreactivity (PSR sort gate)": "low polyreactivity"},
      {"sequence": "QVQLVESGGGLVQAGGSLRLSCAASGSIFVINAMGWYRQAPGKERELVAAIDWSGDSTYYADSVKVRFTISRDNAKNTVYLEMNSLKPEDTAVYYCAADLDSRGTYGRYEYWGQGTQVTVSS", "polyreactivity (PSR sort gate)": "low polyreactivity"},
      {"sequence": "QVQLVESGGGLVQAGGSLRLSCAASGSIFVIYAMGWYRQAPGKERELVAAISRSGGRTYYADSVKGRFTISRDNAKTTVYLQMNSLKPEDTAVYYCAAEGSTYQGAPGVYYWGQGTQVTVSS", "polyreactivity (PSR sort gate)": "high polyreactivity"},
      {"sequence": "QVQLVESGGGLVQAGGSLRLSCAASGSIFVIYAMGWYRQAPGKERELVATISGGGGTNYADSVKGRFTISRDNAKNTVYLQMNSLNPEDTAVYYCAARSKVHRWRKRYDYWGQGTQVTVSS", "polyreactivity (PSR sort gate)": "high polyreactivity"},
      {"sequence": "QVQLVESGGGLVQAGGSLRLSCAASGSIFVKNAMGWYRQAPGKEREFVAAITTSGGSTNYADSVKGRFTISLDNAKNTVYLQMNSLKPEDTAVYYCNTDIFPAAYDYWGQGTQVTVSS", "polyreactivity (PSR sort gate)": "low polyreactivity"},
      {"sequence": "QVQLVESGGGLVQAGGSLRLSCAASGSIFVKNAMGWYRQAPGKERELVARITYSGGSTYYADSVKGRFTISRDNAKNTVYLQMNSLKPEDTAVYYCAARYWYFPQTYYPGNDYWGQGTQVTVSS", "polyreactivity (PSR sort gate)": "high polyreactivity"},
      {"sequence": "QVQLVESGGGLVQAGGSLRLSCAASGSIFVLNAMGWYRPAPGKDRELVAAITNVGSTYYADSVKGRFTISRDNAKNTVYLQMNSRKPEDTAVYYCNADPAEVLVGYDYWGQGTQVTVSS", "polyreactivity (PSR sort gate)": "low polyreactivity"},
      {"sequence": "QVQLVESGGGLVQAGGSLRLSCAASGSIFVLNAMGWYRQAPGKERELVAAITNVGSTYYADSVKGRFTISRDNAKNTVYLQMNSLKPEDTAVYYCVAKGHLYSGGYEYYYWGQGTQVTVSS", "polyreactivity (PSR sort gate)": "low polyreactivity"},
      {"sequence": "QVQLVESGGGLVQAGGSLRLSCAASGSIFVLYAMGWYRQAPGKEREFVAAISWSGDSTYYADSVKGRFTISRDNAKNTVFLQMNSLKPEDTAVYYCAVYGYRTKYGYWGQGTQVTVSS", "polyreactivity (PSR sort gate)": "high polyreactivity"},
      {"sequence": "QVQLVESGGGLVQAGGSLRLSCAASGSIFVNYAMGWYRQAPGKERELVAAITSRGTRTYYADSVKGRFTISRDNAKNTVYLQMNSLKPEDTAVYYCAAKQVSRGVAAYDYWGQGTQVTVSS", "polyreactivity (PSR sort gate)": "high polyreactivity"},
      {"sequence": "QVQLVESGGGLVQAGGSLRLSCAASGSIFVPNAMGWYRQAPGNERELVADLTRRGGSTYYADSVKGRFTISRDNAKNTVYLQMNSLKPEDTAVYYCNATYLTRSTRLSDFDYWGQGTQVTVSS", "polyreactivity (PSR sort gate)": "high polyreactivity"},
      {"sequence": "QVQLVESGGGLVQAGGSLRLSCAASGSIFVPNTMGWYRQAPGKERELVAAIRFSSGRTYYADSVKGRFTISRDNAKNTVYLQMNSLKPEVTAVYYCAADPRYSSGITYTRFYYWGQGTQVTVSS", "polyreactivity (PSR sort gate)": "high polyreactivity"},
      {"sequence": "QVQLVESGGGLVQAGGSLRLSCAASGSIFVPYAMGWYRQAPGKERELVAAINHGGGRTYADSVKGRFTISRDNAKNTVYLQMNSLKPEDTAVYYCAADGAHKFGYYRYYYWGQGTQVTVSS", "polyreactivity (PSR sort gate)": "low polyreactivity"},
      {"sequence": "QVQLVESGGGLVQAGGSLRLSCAASGSIFVPYAMGWYRQAPGKERELVAAISNGDSTYYADSVKGRFTISRDNAKNTVYLQMNSLKPEDTAVYYCATRGIPDDNARDYWGQGTQVTVSS", "polyreactivity (PSR sort gate)": "low polyreactivity"},
      {"sequence": "QVQLVESGGGLVQAGGSLRLSCAASGSIFVPYAMGWYRQAPGKERELVAAITWSGSSTYYADSVKGRFTISRDNAKNTVYLQMNSLKPEDTAVYYCAADYFDWEGNGYYYWGQGTQVTVSS", "polyreactivity (PSR sort gate)": "high polyreactivity"},
      {"sequence": "QVQLVESGGGLVQAGGSLRLSCAASGSIFVQNAMGWYRQAPGTERELVAVINSGDSTNYADSVKGRFTISRDNAKNTVDLQMNSLKPEDTAVYYCAVDDVSYYYLRAYNYELSWYCSGLDYWGQGTQVTVSS", "polyreactivity (PSR sort gate)": "low polyreactivity"},
      {"sequence": "QVQLVESGGGLVQAGGSLRLSCAASGSIFVQYAMGWYRQAPGKERELVAAISRGGGRTYYADSVKGRFTISRDNANNTVYLQMNSLKPEDTAVYYCAADSRPRDDYWGQGTQVTVSS", "polyreactivity (PSR sort gate)": "high polyreactivity"},
      {"sequence": "QVQLVESGGGLVQAGGSLRLSCAASGSIFVRNAMGWYRQAPGKERELVAAITATGGRTYYADSVKGRFTISRDNAKNTVYLQMNSLKPEDTAVYYCAAYYPRSGYDYWGQGTQVTVSS", "polyreactivity (PSR sort gate)": "high polyreactivity"},
      {"sequence": "QVQLVESGGGLVQAGGSLRLSCAASGSIFVRNGMGWYIQAPGKERELVASITSGTITYYADSVKGRFTISRDNAKNTVYLQMNSLKPEDTAVYYCAARRDRGRVKFYYWGQGTQVTVSS", "polyreactivity (PSR sort gate)": "high polyreactivity"},
      {"sequence": "QVQLVESGGGLVQAGGSLRLSCAASGSIFVRNGMGWYRQAPGKERELVASITSGTITYYADSVKGRFTISRDNAKNTVYLQINSLKPEDTAVYYCNAGCRSSRFKRPYFRERNYWGQGTQVTVSS", "polyreactivity (PSR sort gate)": "high polyreactivity"},
      {"sequence": "QVQLVESGGGLVQAGGSLRLSCAASGSIFVRYAMGWYRQAPGKERQLVASIRSRGDSTYYADSVKGRFTISRDNAKNTVYLQMNSLKPEETAVYYCAARRYPPRMDYWGQGTQVTVSS", "polyreactivity (PSR sort gate)": "high polyreactivity"},
      {"sequence": "QVQLVESGGGLVQAGGSLRLSCAASGSIFVRYTMAWYRQAPGKERELVAAISWGGGSTYYADSVKGRFTISRDNAKYTVYLQMNSLKPEDTAVYFCNKRYIQLYDYWGQGTQVTVSS", "polyreactivity (PSR sort gate)": "low polyreactivity"},
      {"sequence": "QVQLVESGGGLVQAGGSLRLSCAASGSIFVSEYVMGLSRPAPGKERELVARIRWSSGSTYYADSVKGRFTISRDNAKNTVYLQIYSLKPEDTAVYYCNKDYYYVIGWTYHRSYHYDYWGQGTQVTVSS", "polyreactivity (PSR sort gate)": "low polyreactivity"},
      {"sequence": "QVQLVESGGGLVQAGGSLRLSCAASGSIFVSYAMVWYRQAPGKERELVAAITRSGGSTYYADSVKGRFTISRDNAKNTVYLQMNSLKPEDTAVYYCAARSYLGAYRRYYWGQGTQVTVSS", "polyreactivity (PSR sort gate)": "high polyreactivity"},
      {"sequence": "QVQLVESGGGLVQAGGSLRLSCAASGSIFVSYARGWYRQAPGKERELVAAITGRTGSTYYADSVKGRFTISRDNAKNTVYLQMNSLKAEDTGVYYCAARHKQHNRYDYWGQGTKVTVSS", "polyreactivity (PSR sort gate)": "low polyreactivity"},
      {"sequence": "QVQLVESGGGLVQAGGSLRLSCAASGSIFVTNAMGWYRQAPGKERELVAAINQGGGSTYYADSVKGRFTISRDNAKNTVYLQMNSLKPEDTAVYYCATDAPYFVPFSTNGEFGDEYWGQGTQVTVSS", "polyreactivity (PSR sort gate)": "low polyreactivity"},
      {"sequence": "QVQLVESGGGLVQAGGSLRLSCAASGSIFVTNAMGWYRQAPGKERELVAAISVSGGSTYYADSVKGRFTISRDNAKNTVYLQMNSLKPEDTGVYYCAADGYIGWRHIYEYWGQGTQVTVSS", "polyreactivity (PSR sort gate)": "low polyreactivity"},
      {"sequence": "QVQLVESGGGLVQAGGSLRLSCAASGSIFVTYAMGSYRQAPGKERELVAAITSIGGTTYYSDSVKGRFTISRDNAKNTVYLQMNSLKPEDTAVYYCAVDGGEFSSYGYWGQGTEVTVSS", "polyreactivity (PSR sort gate)": "low polyreactivity"},
      {"sequence": "QVQLVESGGGLVQAGGSLRLSCAASGSIFVTYAMGWYRQAPGKERELVAAISTSGGSTYADSVKGRFTISRDNAKNTVYLQMNSLKPEDTAVYYCNADDPGYAVPWYWFKYDYWGQGTQVTGSS", "polyreactivity (PSR sort gate)": "low polyreactivity"},
      {"sequence": "QVQLVESGGGLVQAGGSLRLSCAASGSIFVTYAMGWYRQAPGKERELVAAITGRDGITYADSVKGRFTISCDNAKNTVYVQMNSLKPEDTAVYYCAAVSHGVYYQYRRRYYSWGQGTQVTVSS", "polyreactivity (PSR sort gate)": "high polyreactivity"},
      {"sequence": "QVQLVESGGGLVQAGGSLRLSCAASGSIFVVYAMGWYRQAPGKERELVAAITADDDTNYADSVKGRFTISRDNAKNTDYLQMNSLKPEDTAVYYCAKEVWLAINTRTGYEVYYWGQGTQVTVSS", "polyreactivity (PSR sort gate)": "low polyreactivity"},
      {"sequence": "QVQLVESGGGLVQAGGSLRLSCAASGSIFVWNARGWYRQAPVKERELVAAISYTDGSTYYADFVKGRFTISRDNAKNTVYLQMNSLKPEDTAVYFCAAAITRSYTGSEYDYWGQGTEVTVSS", "polyreactivity (PSR sort gate)": "low polyreactivity"},
      {"sequence": "QVQLVESGGGLVQAGGSLRLSCAASGSIFVWYAMGWYRQEPGKERELVATISSRGGTTYYADSVKGRFTISRDNAKNTVYLQMNSLKPEDTAVYYCNAKRRAQYGYRVFRYDYWGQGTQVTVSS", "polyreactivity (PSR sort gate)": "high polyreactivity"},
      {"sequence": "QVQLVESGGGLVQAGGSLRLSCAASGSIFVWYDLGWYRQAPGKERELVATISLSGVSTYYADSVKGRFTISRDNAKNTVYLQMNSLKPEDTAVYYCAADFVEQGEDDYWGQGTQVTVSS", "polyreactivity (PSR sort gate)": "low polyreactivity"}
    ]}
  ]
}
